Experimental data reported in patent US20250320281A1.

How the values were obtained:
Experiment in all cases: cell-based or functional assay
[1] = target: HIV-1 Env of isolate 92BR020 (clade B) on pseudovirus (HIV-1)
[2] = target: HIV-1 Env of isolate 93UG077 (clade A) on pseudovirus (HIV-1)
[3] = target: HIV-1 Env of isolate JRCSF (clade B) on pseudovirus (HIV-1) (UniProt P20871)
[4] = target: HIV-1 Env of isolate 93IN905 (clade C) on pseudovirus (HIV-1)
[5] = target: HIV-1 Env of isolate APV6 (clade B) on pseudovirus (HIV-1)
[6] = target: HIV-1 Env of isolate JRFL (clade B) on pseudovirus (HIV-1)
[7] = target: HIV-1 Env of isolate 92RW020 (clade A) on pseudovirus (HIV-1)
[8] = target: HIV-1 Env of isolate MGRM-C-026 (clade C) on pseudovirus (HIV-1)
[9] = target: HIV-1 Env of isolate MGRM-D-018 (clade D) on pseudovirus (HIV-1)
[10] = target: HIV-1 Env of isolate APV17 (clade B) on pseudovirus (HIV-1)
[11] = target: HIV-1 Env of isolate MGRM-D-001 (clade D) on pseudovirus (HIV-1)
[12] = target: HIV-1 Env of isolate MGRM-C-027 (clade C) on pseudovirus (HIV-1)
[13] = target: HIV-1 Env of isolate APV13 (clade B) on pseudovirus (HIV-1)
[14] = target: HIV-1 Env of isolate 94UG103 (clade A) on pseudovirus (HIV-1)
[15] = target: HIV-1 Env of isolate MGRM-A-012 (pseudovirus) (HIV-1)
[16] = target: HIV-1 Env of isolate 92UG031 (pseudovirus) (HIV-1)
[17] = target: HIV-1 Env of isolate MGRM-A-002 (pseudovirus) (HIV-1)
[18] = target: HIV-1 Env of isolate 92TH021 (pseudovirus) (HIV-1)
[19] = target: HIV-1 Env of isolate 92WR026 (pseudovirus) (HIV-1)
[20] = target: HIV-1 Env of isolate MGRM-A-008 (pseudovirus) (HIV-1)
[21] = target: HIV-1 Env of isolate MGRM-A-007 (pseudovirus) (HIV-1)
[22] = target: HIV-1 Env of isolate MGRM-AE-003 (pseudovirus) (HIV-1)
[23] = target: HIV-1 Env of isolate 92WR024 (pseudovirus) (HIV-1)
[24] = target: HIV-1 Env of isolate MGRM-A-006 (pseudovirus) (HIV-1)
[25] = target: HIV-1 Env of isolate MGRM-A-011 (pseudovirus) (HIV-1)
[26] = target: HIV-1 Env of isolate MGRM-AE-001 (pseudovirus) (HIV-1)
[27] = target: HIV-1 Env of isolate 92UG037 (pseudovirus) (HIV-1)
[28] = target: HIV-1 Env of isolate MGRM-A-014 (pseudovirus) (HIV-1)
[29] = target: HIV-1 Env of isolate MGRM-A-004 (pseudovirus) (HIV-1)
[30] = target: HIV-1 Env of isolate MGRM-A-005 (pseudovirus) (HIV-1)
[31] = target: HIV-1 Env of isolate 94UG103 (pseudovirus) (HIV-1)
[32] = target: HIV-1 Env of isolate 92WR020 (pseudovirus) (HIV-1)
[33] = target: HIV-1 Env of isolate 93WR029 (pseudovirus) (HIV-1)
[34] = target: HIV-1 Env of isolate VLGCA1 (pseudovirus) (HIV-1)
[35] = target: HIV-1 Env of isolate MGRM-A-009 (pseudovirus) (HIV-1)
[36] = target: HIV-1 Env of isolate MGRM-A-001 (pseudovirus) (HIV-1)
[37] = target: HIV-1 Env of isolate MGRM-AE-002 (pseudovirus) (HIV-1)
[38] = target: HIV-1 Env of isolate MGRM-A-003 (pseudovirus) (HIV-1)
[39] = target: HIV-1 Env of isolate MGRM-A-010 (pseudovirus) (HIV-1)
[40] = target: HIV-1 Env of isolate CMU02 (pseudovirus) (HIV-1)
[41] = target: HIV-1 Env of isolate 93UG077 (pseudovirus) (HIV-1)
[42] = target: HIV-1 Env of isolate 92WR009 (pseudovirus) (HIV-1)
[43] = target: HIV-1 Env of isolate 92WR021 (pseudovirus) (HIV-1)
[44] = target: HIV-1 Env of isolate MGRM-A-013 (pseudovirus) (HIV-1)
[45] = target: HIV-1 Env of isolate 94KE105 (pseudovirus) (HIV-1)
[46] = target: HIV-1 Env of isolate 92RW008 (pseudovirus) (HIV-1)

PGT-121 (4838_L06; 4873_E03) human monoclonal anti-HIV antibody
IC80 (pseudovirus neutralization) [1]: 0.0532 µg/mL
IC90 (pseudovirus neutralization) [1]: 0.101 µg/mL
IC90 (pseudovirus neutralization) [2]: 0.369 µg/mL
IC95 (pseudovirus neutralization) [2]: 0.74 µg/mL
IC90 (pseudovirus neutralization) [3]: 0.223 µg/mL
IC95 (pseudovirus neutralization) [3]: 0.417 µg/mL
IC80 (pseudovirus neutralization) [4]: 0.0302 µg/mL
IC90 (pseudovirus neutralization) [4]: 0.0645 µg/mL
IC80 (pseudovirus neutralization) [5]: 0.145 µg/mL
IC95 (pseudovirus neutralization) [5]: 0.569 µg/mL
IC80 (pseudovirus neutralization) [6]: 0.0806 µg/mL
IC90 (pseudovirus neutralization) [6]: 0.151 µg/mL
IC95 (pseudovirus neutralization) [6]: 0.267 µg/mL
IC80 (pseudovirus neutralization) [7]: 0.0188 µg/mL
IC90 (pseudovirus neutralization) [7]: 0.0361 µg/mL
IC95 (pseudovirus neutralization) [7]: 0.0671 µg/mL
IC95 (pseudovirus neutralization) [8]: 0.0687 µg/mL
IC80 (pseudovirus neutralization) [9]: 0.0231 µg/mL
IC90 (pseudovirus neutralization) [9]: 0.0414 µg/mL
IC95 (pseudovirus neutralization) [9]: 0.0715 µg/mL
IC80 (pseudovirus neutralization) [10]: 0.371 µg/mL
IC90 (pseudovirus neutralization) [10]: 0.799 µg/mL
IC95 (pseudovirus neutralization) [10]: 1.55 µg/mL
IC80 (pseudovirus neutralization) [11]: 3.29 µg/mL
IC90 (pseudovirus neutralization) [11]: 6.26 µg/mL
IC95 (pseudovirus neutralization) [11]: 9.39 µg/mL
IC80 (pseudovirus neutralization) [12]: 0.0829 µg/mL
IC90 (pseudovirus neutralization) [12]: 0.374 µg/mL
IC95 (pseudovirus neutralization) [12]: 3.14 µg/mL
IC80 (pseudovirus neutralization) [13]: 1.31 µg/mL
IC90 (pseudovirus neutralization) [13]: 2.8 µg/mL
IC95 (pseudovirus neutralization) [13]: 5.15 µg/mL
IC80 (pseudovirus neutralization) [14]: 8.85 µg/mL

PGT-122 (4877_D15) (antibody)
IC50 (µg/mL), pseudovirus neutralization [15]: 0.257 µg/mL
IC50 (µg/mL), pseudovirus neutralization [16]: > 50 µg/mL
IC50 (µg/mL), pseudovirus neutralization [17]: 0.017 µg/mL
IC50 (µg/mL), pseudovirus neutralization [18]: > 50 µg/mL
IC50 (µg/mL), pseudovirus neutralization [19]: 0.036 µg/mL
IC50 (µg/mL), pseudovirus neutralization [20]: > 50 µg/mL
IC50 (µg/mL), pseudovirus neutralization [21]: > 50 µg/mL
IC50 (µg/mL), pseudovirus neutralization [22]: > 50 µg/mL
IC50 (µg/mL), pseudovirus neutralization [23]: > 50 µg/mL
IC50 (µg/mL), pseudovirus neutralization [24]: > 50 µg/mL
IC50 (µg/mL), pseudovirus neutralization [25]: > 50 µg/mL
IC50 (µg/mL), pseudovirus neutralization [26]: > 50 µg/mL
IC50 (µg/mL), pseudovirus neutralization [27]: 0.068 µg/mL
IC50 (µg/mL), pseudovirus neutralization [28]: 0.007 µg/mL
IC50 (µg/mL), pseudovirus neutralization [29]: > 50 µg/mL
IC50 (µg/mL), pseudovirus neutralization [30]: > 50 µg/mL
IC50 (µg/mL), pseudovirus neutralization [31]: 2.04 µg/mL
IC50 (µg/mL), pseudovirus neutralization [32]: 0.009 µg/mL
IC50 (µg/mL), pseudovirus neutralization [33]: > 50 µg/mL
IC50 (µg/mL), pseudovirus neutralization [34]: > 50 µg/mL
IC50 (µg/mL), pseudovirus neutralization [35]: 0.012 µg/mL
IC50 (µg/mL), pseudovirus neutralization [36]: > 50 µg/mL
IC50 (µg/mL), pseudovirus neutralization [37]: > 50 µg/mL
IC50 (µg/mL), pseudovirus neutralization [38]: 3.79 µg/mL
IC50 (µg/mL), pseudovirus neutralization [39]: 2.51 µg/mL
IC50 (µg/mL), pseudovirus neutralization [40]: > 50 µg/mL
IC50 (µg/mL), pseudovirus neutralization [41]: 0.084 µg/mL
IC50 (µg/mL), pseudovirus neutralization [42]: 42.4 µg/mL
IC50 (µg/mL), pseudovirus neutralization [43]: 0.021 µg/mL
IC50 (µg/mL), pseudovirus neutralization [44]: 2.47 µg/mL
IC50 (µg/mL), pseudovirus neutralization [45]: 0.056 µg/mL
IC50 (µg/mL), pseudovirus neutralization [46]: 0.003 µg/mL
